Read-outs that look alike come from different tables or passages of the source.
Tests used:
Aβ1-40 [1] = target: T1, Aβ1-40 (Homo sapiens, UniProt P05067); test: SDS-PAGE of supernatants, soluble Aβ1-40; type: biochemical; details: co-incubation with 25 μM Aβ1-40, 37° C., 3 weeks incubation, centrifugation at 3300 g
T1 construct: made in house; host or cells: E. coli
Experimental: […] Aβ1-40 was dissolved in 100% DMSO to 250 μM stock solution, which was diluted to working concentrations. For Thioflavin T (ThT) fluorescence measurements, 10 μl aliquots were removed at different time points, 10 μM ThT (Aldrich) added, and fluorescence was measured with a […] fluorescence plate reader (GE Healthcare), emission wavelength is 480 nm, excitation wavelength 440 nm. Measurements of ThT were done in duplicates. For analysis of soluble Aβ1-40 and ultrastructure of Aβ aggregates, aliquots were removed and centrifuged at 3300 g for 9 min. The supernatant was analyzed by SDS-PAGE and pellets were resuspended in 200 μl distilled water, 2 μl of the resuspension was added onto 200 mesh copper electron microscopy grids, stained with 2% uranyl acetate for 30 s, then left to dry at 20° C. A Hitachi H 7100 microscope operated at 75 kV was used for examination and photographing.

Aβ1-40 [2] = target: T1, Aβ1-40; test: ESI-MS binding of Bri2(90-236) to Aβ1-40
Experimental: Prior to electrospray ionization mass spectrometry (ESI-MS), purified Bri2(90-236) (SEQ ID NO: 2) was rebuffered into 10 mM ammonium acetate, pH 7.0, using spin columns with a 3 kDa cut-off limit (Nanosep, Pall Corp., East Hills, N.Y., USA). Protein and peptides were mixed at 22° C. directly before analysis at a final protein concentration of 20 μM and a final peptide concentration of 50 μM. Data was acquired using a QTOF Ultima API mass spectrometer (Waters, Milford, Mass., USA) equipped with a Z-spray source operated in the positive-ion mode. Samples were introduced via nano-electrospray using metal-plated borosilicate glass capillary needles (Proxeon, Denmark). The source temperature was 80° C., the capillary voltage 1.7 kV, and the cone and RF lens 1 potentials were 100 and 38 V, respectively. […]
ESI-MS binding experiments were conducted to investigate whether Bri2(90-236) can bind the peptides ABri23 and Aβ1-40. For this purpose, Bri2(90-236) was mixed with ABri23, Aβ1-40, or an equimolar mixture of ABri23 and Aβ1-40, to a final concentration of 20 μM Bri2(90-236) and 50 μM of each peptide, and analyzed by ESI-MS. Mass spectra were recorded to investigate the presence and stoichiometry of protein-peptide complexes in the gas phase.

Aβ1-40 [3] = target: T1, Aβ1-40; type: biochemical
Text: (§1) Aβ1-40 (SEQ ID NO: 11) and Aβ1-42 (SEQ ID NO: 12) were expressed in E. coli from synthetic genes and purified in batch format using ion exchange and size exclusion steps as described in Walsh et al., FEBS J. 2009, 276, 1266-1281, which results in highly pure monomeric peptide. Purified peptide was divided into 20-30 identical aliquots and frozen. Monomer was then isolated by gel filtration of an aliquot of purified peptide just prior to setting up each of the experiments listed below to remove traces of aggregate formed during freezing and thawing and to exchange buffer to the one used in the respective experiment. Monomer was collected in low-bind Ep-tubes ([…]) on ice, and the concentration was determined by absorbance or amino acid analysis after acid hydrolysis. The monomer was used as is or diluted to the desired concentration for the respective experiment. Bri2(90-236) (SEQ ID NO: 2) was expressed and purified as described in Example 1. Aggregation kinetics were studied by recording the Thioflavin T (ThT) fluorescence intensity as a function of time in a plate reader (FluoStar Omega from BMG Labtech, Offenberg, Germany). The fluorescence was recorded using bottom optics in half-area 96-well PEG-coated black polystyrene plates with clear bottom (Corning 3881) using 440 nm excitation filter and 480 nm emission filter. Aβ monomer was isolated by gel filtration as above in 20 mM Na-phosphate, 200 μM EDTA, 0.02% NaN3 (at pH 7.4 in the case of Aβ1-40 and at pH 8.0 for Aβ1-42) and diluted to 6 or 8 μM in the case of Aβ1-40 and 3 μM in the case of Aβ1-42 in the same buffer and supplemented with 20 μM ThT from a 2 mM stock. To each well in the 96-well plate was first added either 10 μl buffer (20 mM Tris/HCl pH 7.4) or 10 μl of Bri2(90-236) protein or control protein at ten times the desired final concentration in 20 mM Tris/HCl pH 7.4. To each well was then added 90 μl of the ice-cold Aβ monomer solution, and the plate was immediately placed in the plate reader at 37° C., with fluorescence read every 6 minutes with continuous shaking at 100 rpm between readings. Aβ1-40 was studied alone or with Bri2(90-236) at a concentration ranging from 60 nM to 6 μM. Aβ1-42 was studied alone or with Bri2(90-236) at a concentration ranging from 20 nM to 6 μM.

Aβ1-42 = target: T2, Aβ1-42 (Homo sapiens, UniProt P05067); test: ThT aggregation kinetics of Aβ1-42 (Example 4); type: biochemical
T2 construct: made in house; host or cells: E. coli
Text: as §1, with “Aβ1-40 was studied alone or with Bri2(90-236) at a concentration ranging from 60 nM to 6 μM. Aβ1-42 was studied alone or with Bri2(90-236) at a concentration ranging from 20 nM to 6 μM.” left out

T1 sequence (P05067 672-711): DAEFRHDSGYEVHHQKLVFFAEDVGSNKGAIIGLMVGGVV
T2 sequence (P05067 672-713): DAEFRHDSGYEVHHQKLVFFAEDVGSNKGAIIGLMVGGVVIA

B1: Bri2(90-236): recombinant protein of residues 90-236 of human Bri2 (SEQ ID NO: 2), encompassing the Brichos domain, expressed in E. coli (protein, listed as Homo sapiens)
chain: GIKYIKDDVILNEPSADAPAALYQTIEENIKIFEEEEVEFISVPVPEFADSDPANIVHDFNKKLTAYLDLNLDKCYVIPLNTSIVMPPRNLLELLINIKAGTYLPQSYLIHEHMVITDRIENIDHLGFFIYRLCHDKETYKLQRRET
**Q.** For B1, which “Aβ1-40 in solution (SDS-PAGE of supernatants)” value (Aβ1-40 [1]) is on record?
**A.** Its value is “staying in solution”.

**Q.** What about the “Bri2(90-236)/Aβ1-40 complex in competition experiment” value (Aβ1-40 [2]; 20 μM Bri2(90-236) with 50 μM Aβ1-40 and 50 μM ABri23 (equimolar)) of the same molecule?
**A.** The value was “only minor signals”.

**Q.** And the “amount of Bri2(90-236)/Aβ1-40 complexes observed” value (Aβ1-40 [2]; 20 μM Bri2(90-236), 50 μM freshly dissolved Aβ1-40 (2.5 fold excess))?
**A.** Its value is “Only small amounts”.

**Q.** And the “prolongation of half time of Aβ1-40 aggregation” value (Aβ1-40 [3]; 170 nM Bri2(90-236), relative to 6 μM Aβ1-40 alone)?
**A.** Its value is “approximately 4.5 times”.

**Q.** What about the “lag time of Aβ1-40 aggregation” value (Aβ1-40 [3]; 0.01 or 0.03 molar equivalents of Bri2(90-236), far below equimolar) of the same molecule?
**A.** The value was “increases extensively”.

**Q.** What about the “lag time of Aβ1-40 aggregation” value (Aβ1-40 [3]; above a molar ratio of 0.1 (1 Bri2(90-236) per 10 Aβ1-40 molecules)) of the same molecule?
**A.** The value was “exceeds one week”.

**Q.** And the “elongation rate of Aβ1-40 aggregation” value (Aβ1-40 [3]; in the presence of Bri2(90-236))?
**A.** Its value is “largely unaffected”.

**Q.** What about the “lag time of Aβ1-42 aggregation” value (Aβ1-42; 3 μM Aβ1-42, molar ratio of 0.1 (1 Bri2(90-236) per 10 Aβ1-42), compared to the undisturbed case) of the same molecule?
**A.** Its value is “doubled”.

**Q.** And the “half time of Aβ1-42 aggregation” value (Aβ1-42; 3 μM Aβ1-42, molar ratio of 0.1, compared to the undisturbed case)?
**A.** Its value is “doubled”.
